# Assay results published in US20110039770A1, “INHIBITORS OF PROTEIN KINASE C ISOFORMS AND USES THEREOF” (PHARMAGAP INC., priority 2005, published 2011).
# Where a SMILES comes first, the peptide text is derived from it. [ ]: non-standard residue; d: D form.
# Experiments:
# [1] = biological target: PKC-δ (Homo sapiens, UniProt Q05655); assay: ELISA-based competitive binding assay with purified PKC isoform; design: key to Affinity for PKC isoform δ: —: no detectable affinity; Low to very low affinity at 10X or 20X or both PRE concentrations in at least one cell line in the cell extract assay; Low affinity in purified isoform assay.; Moderate affinity at 10X or 20X or both PRE concentrations in at least one cell line in the cell extract assay.; High affinity at 10X or 20X or both PRE concentrations in at least one cell line in the cell extract assay; High affinity in purified isoform assay; conditions: for Affinity for PKC isoform δ: Purified isoform
# Description: (§1) Peptides PRE 1, 2, 3, 4, 5, 6, 7, 8, 9, 10, 11, 12 and 13 (see Table 3) were tested for their ability to interfere with binding of PKC isoform-specific antibodies to their target PKC isoforms using a competitive binding assay and purified PKC isoforms.
# (§2) Procedure: Competitive binding was assessed using a 96 well plate ELISA-based assay as described below.
# (§3) Greiner 96 well ELISA plates were coated with the appropriate PKC isoform diluted in PBSN (PBS with Calcium/Magnesium+0.05% Sodium azide w/w). 50 μL/well at 250 ng/mL was used. Control wells contained PBSN only. Plates were incubated overnight at 4° C.
# (§4) The plates were washed 3 times with 200 μL of dH2O per well, then 100 μL of blocking solution was added per well and the plate incubated for 1 h at 37° C. The washing steps with dH2O were repeated and 50 μL of the appropriate PRE solution (PRE stock solution [20 mM in DMSO] diluted in PBSN) was added and the plate incubated for 1 h at room temperature.
# (§5) After incubation, 5 μL of 1.1:400 anti-PKC (isoform specific antibody) was added per well (to provide a final concentration of 1:4000). For PKC-epsilon, 1.1:800 dilution was used and for PKC-zeta a 1.1:100 dilution was used due to high and low binding affinity, respectively. The plates were then incubated 1 h at room temperature, followed by washing with dH2O as described above.
# (§6) 50 μL of 1:1000 dilution of Alkaline Phosphatase (AP) conjugated antibody (anti-rabbit for all except zeta, which was anti-goat) was then added and the plate incubated for 1 h at room temperature. Washing with dH2O was then repeated. Finally, 100 μL of pNPP solution in pNPP buffer (2 mM MgCl2, 100 mM Sodium bicarbonate in water, pH 9.8) was added to all wells and incubated for 8 minutes for α, βI, βII ε, and ζ, or for 15-20 mins for δ (until sufficient coloration is observed). The reaction was stopped by addition of Stop solution (2N NaOH) and the absorbance at 405 nm was read on a Galaxy Plate reader.
# (§7) Controls were PKC without PRE; blank controls, and controls containing the final concentrations of DMSO used for solubilizing the PREs. The non-specific binding capacity related to DMSO was also measured.
# (§8) The antibodies used were as follows: anti-PKC α (Cat. No. SC-208); anti-PKC βI (Cat. No. SC-209); anti-PKC βII (Cat. No. SC-210); anti-PKC δ (Cat. No. SC-213); anti-PKC ε (Cat. No. SC-214); anti-PKC ζ (Cat. No. SC-216-G) (all from Santa Cruz Biotechnology, Inc.). The AP-conjugated antibodies were obtained from Jackson Immuno Research Laboratories (West Grove, Pa.).
# (§9) Calculations: The OD values measured at 405 nm represent the free PKC coated per well.
# (§10) OD405 PKC alone−Blank OD405 of each sample=OD405 coated isoform
# (§11) (OD405 of sample X/OD405 coated isoform)×100=% n that represents the percentage of X binding compared to control.
# (§12) 100-% n measures the relative binding capacity of X towards the tested isoform.
# (§13) The apparent binding capacity of the DMSO samples was then subtracted from X binding capacity.
# (§14) All measurements were made in triplicate and the values in the table represent the averaged calculated binding capacity values after subtraction of the DMSO apparent binding capacity (averaged from 12 values, respectively 10.80, 11.20 and 16.40 corresponding to the concentrations of DMSO used to dilute the […] at 200, 100 and 50 μM respectively). The results allow for quantitative comparison of the binding capacity of each PRE towards an individual isoform within each table, but not among isoforms due to differences in sensitivity of the specific antibodies toward the secondary antibody. This applies particularly to PKC-delta. As noted above, the colour development duration was increased 2-3 times and, as a result, the OD405 measurements may be overestimated for this isoform.
# [2] = biological target: T1, PKC-ζ (Homo sapiens, UniProt Q05513); assay: as above; design: key to Affinity for PKC isoform ζ: —: no detectable affinity; Low to very low affinity at 10X or 20X or both PRE concentrations in at least one cell line in the cell extract assay; Low affinity in purified isoform assay.; Moderate affinity at 10X or 20X or both PRE concentrations in at least one cell line in the cell extract assay.; High affinity at 10X or 20X or both PRE concentrations in at least one cell line in the cell extract assay; High affinity in purified isoform assay; conditions: for Affinity for PKC isoform ζ: Purified isoform
# T1 sequence (Q05513 1-592): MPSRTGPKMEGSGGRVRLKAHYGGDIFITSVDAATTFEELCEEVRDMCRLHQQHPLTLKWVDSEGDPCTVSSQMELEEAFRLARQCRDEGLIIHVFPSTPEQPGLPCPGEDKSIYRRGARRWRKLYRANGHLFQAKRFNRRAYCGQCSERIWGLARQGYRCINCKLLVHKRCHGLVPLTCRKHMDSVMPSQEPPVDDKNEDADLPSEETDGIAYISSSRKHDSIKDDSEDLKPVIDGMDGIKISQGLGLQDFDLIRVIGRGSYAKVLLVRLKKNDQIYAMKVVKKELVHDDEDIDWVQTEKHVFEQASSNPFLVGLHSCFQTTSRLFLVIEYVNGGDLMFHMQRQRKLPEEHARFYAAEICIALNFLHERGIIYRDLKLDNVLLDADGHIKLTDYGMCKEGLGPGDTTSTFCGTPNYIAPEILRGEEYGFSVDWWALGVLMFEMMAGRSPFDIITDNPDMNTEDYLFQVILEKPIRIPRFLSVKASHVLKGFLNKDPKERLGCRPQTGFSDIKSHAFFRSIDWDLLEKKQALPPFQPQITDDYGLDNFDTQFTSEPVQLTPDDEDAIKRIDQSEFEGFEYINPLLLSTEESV
# Description: as §1, §2, §3, §4, §5, §6, §7, §8, §9, §10, §11, §12, §13, §14
# [3] = PRE 50 μM, purified PKC-ζ, read-out: calculated binding capacity (100-% n, DMSO apparent binding subtracted)
# [4] = PRE 100 μM, purified PKC-ζ, read-out: calculated binding capacity (100-% n, DMSO apparent binding subtracted)
# Chain of PKC-δ (Q05655 whole entry, canonical isoform): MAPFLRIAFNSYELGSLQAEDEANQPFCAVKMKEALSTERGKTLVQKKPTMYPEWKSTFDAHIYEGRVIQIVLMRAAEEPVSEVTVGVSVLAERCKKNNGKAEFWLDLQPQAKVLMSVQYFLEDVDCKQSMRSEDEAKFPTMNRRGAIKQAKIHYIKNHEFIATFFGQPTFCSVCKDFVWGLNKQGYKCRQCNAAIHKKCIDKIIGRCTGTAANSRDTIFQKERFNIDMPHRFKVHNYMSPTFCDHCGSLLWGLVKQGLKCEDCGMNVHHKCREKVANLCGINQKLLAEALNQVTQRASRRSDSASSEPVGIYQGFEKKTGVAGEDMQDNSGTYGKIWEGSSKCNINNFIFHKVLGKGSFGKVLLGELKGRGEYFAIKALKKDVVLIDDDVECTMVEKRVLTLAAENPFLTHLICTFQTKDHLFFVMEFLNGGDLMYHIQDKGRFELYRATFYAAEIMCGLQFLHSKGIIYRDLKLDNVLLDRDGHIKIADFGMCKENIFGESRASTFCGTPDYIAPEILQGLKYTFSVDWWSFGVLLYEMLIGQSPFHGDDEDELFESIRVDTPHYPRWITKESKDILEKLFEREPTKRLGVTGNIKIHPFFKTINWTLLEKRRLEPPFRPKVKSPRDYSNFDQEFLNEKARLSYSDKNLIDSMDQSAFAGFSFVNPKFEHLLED
Affinity for PKC isoform δ [1],Affinity for PKC isoform ζ [2],Molecule,also measured
H,H,CC[C@H](C)[C@H](NC(=O)[C@H](CO)NC(=O)[C@@H](NC(=O)CNC(=O)[C@@H](NC(=O)[C@H](CC(C)C)NC(=O)[C@H](CC(N)=O)NC(=O)[C@H](CCC(N)=O)NC(=O)[C@H](C)NC(=O)[C@H](CC(=O)O)NC(=O)CNC(=O)CNC(=O)[C@H](CCCCN)NC(=O)[C@@H](NC(=O)[C@H](CCC(=O)O)NC(=O)[C@H](CCC(N)=O)NC(=O)[C@@H](NC(=O)CNC(=O)[C@H](CCCCN)NC(=O)[C@H](C)NC(C)=O)[C@@H](C)CC)C(C)C)[C@@H](C)CC)[C@@H](C)CC)C(N)=O [PRE 3] (Ac-AKGIQEVKGGDAQNLIGISI-NH2),
H,—,"CC[C@H](C)[C@H](NC(=O)[C@H](CO)NC(=O)[C@@H](NC(=O)CNC(=O)[C@@H](NC(=O)[C@H](CC(C)C)NC(=O)[C@H](CC(N)=O)NC(=O)[C@H](CCC(N)=O)NC(=O)[C@H](C)NC(=O)[C@H](CC(=O)O)NC(=O)[C@H](CCCCN)NC(C)=O)[C@@H](C)CC)[C@@H](C)CC)C(N)=O [PRE 4, Ac-KDAQNLIGISI-NH2] (Ac-KDAQNLIGISI-NH2)","inhibition at 50 µM [2, 3]: 0%; inhibition at 100 µM [2, 4]: 0%"
L,—,CC[C@H](C)[C@H](NC(=O)[C@H](CO)NC(=O)[C@@H](NC(=O)CNC(=O)[C@@H](NC(=O)[C@H](CC(C)C)NC(=O)[C@H](CC(N)=O)NC(=O)[C@H](CCC(N)=O)NC(=O)[C@H](C)NC(=O)[C@H](CC(=O)O)NC(=O)[C@H](CCCCN)NC(=O)CNC(=O)CNC(=O)[C@H](CCCCN)NC(=O)[C@@H](NC(=O)[C@H](CCC(=O)O)NC(=O)[C@H](CCC(N)=O)NC(=O)[C@@H](NC(=O)CNC(=O)[C@H](CCCCN)NC(=O)[C@H](C)NC(C)=O)[C@@H](C)CC)C(C)C)[C@@H](C)CC)[C@@H](C)CC)C(N)=O [PRE 5] (Ac-AKGIQEVKGGKDAQNLIGISI-NH2),"inhibition at 50 µM ([1]; PRE 50 μM, purified PKC-δ (may be overestimated), read-out: calculated binding capacity (100-% n, DMSO apparent binding subtracted)): 0.2%; inhibition at 100 µM ([1]; PRE 100 μM, purified PKC-δ (may be overestimated), read-out: calculated binding capacity (100-% n, DMSO apparent binding subtracted)): 0%; inhibition at 50 µM [2, 3]: 0%; inhibition at 100 µM [2, 4]: 0%; inhibition at 200 µM ([2]; PRE 200 μM, purified PKC-ζ, read-out: calculated binding capacity (100-% n, DMSO apparent binding subtracted)): 0%"
—,—,Ac-ISIGILNQADK-NH2 [PRE 10],
—,—,Ac-ISIGILQNADK-NH2 (not fully specified; printed as Ac-ISIGILQNADK-NH2) [PRE 7],"calculated binding capacity (100-% n, DMSO apparent binding subtracted) ([2]; PRE 50 μM, purified PKC-ζ): 1.83%; calculated binding capacity (100-% n, DMSO apparent binding subtracted) ([2]; PRE 200 μM, purified PKC-ζ): 1.54%"
L,—,Ac-KDANQLIGISI-NH2 [PRE 6],
L,—,Ac-KDAQNLI-NH2 [PRE 12],"calculated binding capacity (100-% n, DMSO apparent binding subtracted) ([2]; PRE 50 μM, purified PKC-ζ): 4.20%; calculated binding capacity (100-% n, DMSO apparent binding subtracted) ([2]; PRE 100 μM, purified PKC-ζ): 8.77%; calculated binding capacity (100-% n, DMSO apparent binding subtracted) ([2]; PRE 200 μM, purified PKC-ζ): 0.33%"
L,—,Ac-RDAQNLI-NH2 [PRE 13],"calculated binding capacity (100-% n, DMSO apparent binding subtracted) ([2]; PRE 200 μM, purified PKC-ζ): 4.29%"
H,—,Ac-RDAQNLIGISI-NH2 [PRE 11],
L,—,Ac-isigilqnadk-NH2 (Ac-[dI][dS][dI]G[dI][dL][dQ][dN][dA][dD][dK]-NH2; SMILES CC[C@@H](C)[C@@H](NC(C)=O)C(=O)N[C@H](CO)C(=O)N[C@@H](C(=O)NCC(=O)N[C@@H](C(=O)N[C@H](CC(C)C)C(=O)N[C@H](CCC(N)=O)C(=O)N[C@H](CC(N)=O)C(=O)N[C@H](C)C(=O)N[C@H](CC(=O)O)C(=O)N[C@H](CCCCN)C(N)=O)[C@H](C)CC)[C@H](C)CC) [PRE 9],"calculated binding capacity (100-% n, DMSO apparent binding subtracted) ([1]; PRE 50 μM, purified PKC-δ (may be overestimated)): 16.23%; calculated binding capacity (100-% n, DMSO apparent binding subtracted) ([1]; PRE 100 μM, purified PKC-δ (may be overestimated)): 19.27%; calculated binding capacity (100-% n, DMSO apparent binding subtracted) ([1]; PRE 200 μM, purified PKC-δ (may be overestimated)): 9.95%"
—,—,ILEDKGGDAQNLIGISI [PRE 8],
H,—,RRKKGGKDFVVKR [PRE 1],"calculated binding capacity (100-% n, DMSO apparent binding subtracted) ([2]; PRE 50 μM, purified PKC-ζ): 4.11%"
